What all share (assay): biochemical
Common to all, as to format: biochemical

Assay [1] concerns the target 266 human kinases (Homo sapiens, UniProt P08581, Y1230D). As to conditions: Met(Y1248D)(h); 100 μM. The method in brief:
(§1)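 Inhibition was judged from reduced transfer of labelled phosphate from ATP to a positively charged substrate, which was captured on a negatively charged membrane and quantified by scintillation counting against a 100% activity control.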

Assay [2] concerns the target 266 human kinases (Homo sapiens, UniProt P12931). As to conditions: 100 μM. The method in brief:
as §1

Assay [3] concerns the target 266 human kinases (Homo sapiens, UniProt P16591). The following applies: Fer(h); 100 μM. The method, boiled down: as §1
The target of assay [4] is 266 human kinases (Homo sapiens, UniProt P17612). The following applies: PKA(h); 100 μM. The method in brief:
as §1

The target in assay [5] is 266 human kinases (Homo sapiens, UniProt P24723). The following applies: PKGη(h); 100 μM. The method, boiled down: as §1
Chain of 266 human kinases (Homo sapiens, UniProt P24723) (P24723 whole entry): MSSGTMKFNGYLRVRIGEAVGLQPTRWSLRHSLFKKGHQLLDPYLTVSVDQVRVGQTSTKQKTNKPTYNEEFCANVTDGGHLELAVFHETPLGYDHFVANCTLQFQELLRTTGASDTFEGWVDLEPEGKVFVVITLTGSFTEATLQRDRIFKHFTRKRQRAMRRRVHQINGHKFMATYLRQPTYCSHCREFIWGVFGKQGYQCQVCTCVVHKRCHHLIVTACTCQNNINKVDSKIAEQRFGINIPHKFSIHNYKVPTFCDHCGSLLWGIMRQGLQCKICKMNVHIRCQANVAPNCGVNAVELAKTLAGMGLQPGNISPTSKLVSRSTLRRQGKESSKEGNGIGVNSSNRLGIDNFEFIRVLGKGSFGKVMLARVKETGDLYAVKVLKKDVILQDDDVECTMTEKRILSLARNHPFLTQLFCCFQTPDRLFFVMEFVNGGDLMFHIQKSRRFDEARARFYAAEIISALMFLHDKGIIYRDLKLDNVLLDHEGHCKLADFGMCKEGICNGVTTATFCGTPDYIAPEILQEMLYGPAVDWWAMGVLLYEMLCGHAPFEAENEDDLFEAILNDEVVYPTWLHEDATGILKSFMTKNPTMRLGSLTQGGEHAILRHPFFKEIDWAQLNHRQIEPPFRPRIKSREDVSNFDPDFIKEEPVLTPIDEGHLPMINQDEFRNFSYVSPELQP
In assay [6] the target is T1, 266 human kinases (Homo sapiens, UniProt P29322).
T1 sequence (P29322 28-1005): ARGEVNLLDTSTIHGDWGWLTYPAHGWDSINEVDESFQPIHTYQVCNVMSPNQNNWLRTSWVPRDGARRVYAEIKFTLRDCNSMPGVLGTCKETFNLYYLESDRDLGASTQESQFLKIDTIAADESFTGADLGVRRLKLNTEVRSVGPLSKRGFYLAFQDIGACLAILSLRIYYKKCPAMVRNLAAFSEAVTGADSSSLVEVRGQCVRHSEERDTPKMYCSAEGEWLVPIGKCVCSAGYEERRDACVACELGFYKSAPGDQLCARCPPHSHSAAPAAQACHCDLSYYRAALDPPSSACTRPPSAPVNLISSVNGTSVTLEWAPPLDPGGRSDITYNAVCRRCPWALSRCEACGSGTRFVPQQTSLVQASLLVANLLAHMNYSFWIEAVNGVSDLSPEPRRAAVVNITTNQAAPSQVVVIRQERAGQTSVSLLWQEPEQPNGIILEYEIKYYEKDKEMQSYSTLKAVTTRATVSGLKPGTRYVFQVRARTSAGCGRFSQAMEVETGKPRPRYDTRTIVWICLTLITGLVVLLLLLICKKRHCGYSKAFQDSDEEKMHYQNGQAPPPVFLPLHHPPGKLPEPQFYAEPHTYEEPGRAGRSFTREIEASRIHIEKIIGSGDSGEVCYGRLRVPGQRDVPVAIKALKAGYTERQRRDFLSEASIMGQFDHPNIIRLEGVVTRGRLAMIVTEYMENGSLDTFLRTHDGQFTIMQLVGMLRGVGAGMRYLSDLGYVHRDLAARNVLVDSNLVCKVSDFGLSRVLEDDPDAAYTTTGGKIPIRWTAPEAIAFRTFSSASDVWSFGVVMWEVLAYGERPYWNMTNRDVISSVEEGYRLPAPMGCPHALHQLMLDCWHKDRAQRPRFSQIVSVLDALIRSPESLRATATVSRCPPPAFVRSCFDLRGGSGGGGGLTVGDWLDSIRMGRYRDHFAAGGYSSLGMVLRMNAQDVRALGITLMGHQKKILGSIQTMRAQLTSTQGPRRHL
The following applies: EphA8(h); 100 μM. The method, boiled down: as §1

The target in assay [7] is 266 human kinases (Homo sapiens, UniProt P42345). The following applies: 100 μM. The method in brief: as §1
In assay [8] the target is 266 human kinases (Homo sapiens, UniProt P50613). As to conditions: CDK7/cyclinH/MAT1(h); 100 μM. The method, boiled down: as §1
Chain of 266 human kinases (Homo sapiens, UniProt P50613) (P50613 whole entry): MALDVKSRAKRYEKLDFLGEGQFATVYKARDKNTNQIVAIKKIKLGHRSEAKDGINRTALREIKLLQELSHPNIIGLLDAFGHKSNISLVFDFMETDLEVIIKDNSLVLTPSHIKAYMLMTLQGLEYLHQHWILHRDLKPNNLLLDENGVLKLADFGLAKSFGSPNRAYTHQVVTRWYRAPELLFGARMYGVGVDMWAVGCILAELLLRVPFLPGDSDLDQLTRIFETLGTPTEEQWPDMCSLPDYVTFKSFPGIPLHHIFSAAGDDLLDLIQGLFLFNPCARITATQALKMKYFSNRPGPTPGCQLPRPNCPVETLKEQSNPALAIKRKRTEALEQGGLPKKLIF
Assay [9] addresses 266 human kinases (Homo sapiens, UniProt Q02763). The following applies: Tie2(h); 100 μM. The method, boiled down: as §1
Assay [10] concerns the target T2, 266 human kinases (Homo sapiens, UniProt Q8IYT8).
T2 sequence (Q8IYT8 1-1036): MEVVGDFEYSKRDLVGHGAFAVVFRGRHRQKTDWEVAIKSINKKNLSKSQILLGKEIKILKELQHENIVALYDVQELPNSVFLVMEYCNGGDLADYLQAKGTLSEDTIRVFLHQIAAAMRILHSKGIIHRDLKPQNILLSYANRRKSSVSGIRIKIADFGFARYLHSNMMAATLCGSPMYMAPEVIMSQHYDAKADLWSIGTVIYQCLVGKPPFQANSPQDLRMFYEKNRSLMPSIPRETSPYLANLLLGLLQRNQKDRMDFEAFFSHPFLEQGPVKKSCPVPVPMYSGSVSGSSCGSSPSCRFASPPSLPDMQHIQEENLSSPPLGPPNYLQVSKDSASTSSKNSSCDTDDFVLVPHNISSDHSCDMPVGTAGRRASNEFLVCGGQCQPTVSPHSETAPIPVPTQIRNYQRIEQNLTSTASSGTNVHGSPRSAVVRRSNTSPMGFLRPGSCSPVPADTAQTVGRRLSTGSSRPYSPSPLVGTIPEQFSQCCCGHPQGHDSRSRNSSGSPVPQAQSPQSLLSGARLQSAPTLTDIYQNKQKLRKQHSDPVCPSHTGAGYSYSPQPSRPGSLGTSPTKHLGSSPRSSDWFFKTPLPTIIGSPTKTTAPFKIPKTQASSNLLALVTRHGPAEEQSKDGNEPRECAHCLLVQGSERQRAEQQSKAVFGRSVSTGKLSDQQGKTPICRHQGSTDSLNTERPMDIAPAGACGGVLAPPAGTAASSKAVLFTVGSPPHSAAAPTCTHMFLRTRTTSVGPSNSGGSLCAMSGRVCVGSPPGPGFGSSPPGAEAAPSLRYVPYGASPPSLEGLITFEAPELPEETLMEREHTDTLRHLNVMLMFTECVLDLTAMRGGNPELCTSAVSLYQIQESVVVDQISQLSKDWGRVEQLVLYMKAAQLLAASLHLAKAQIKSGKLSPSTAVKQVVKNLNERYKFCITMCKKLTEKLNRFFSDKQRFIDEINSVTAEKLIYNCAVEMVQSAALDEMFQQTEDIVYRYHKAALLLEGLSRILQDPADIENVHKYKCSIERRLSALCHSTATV
The following applies: ULK2(h); 100 μM. The method in brief: as §1

The target in assay [11] is 266 human kinases (Homo sapiens, UniProt Q8TDX7). The following applies: NEK7(h); 100 μM. The method, boiled down: as §1
Chain of 266 human kinases (Homo sapiens, UniProt Q8TDX7) (Q8TDX7 whole entry): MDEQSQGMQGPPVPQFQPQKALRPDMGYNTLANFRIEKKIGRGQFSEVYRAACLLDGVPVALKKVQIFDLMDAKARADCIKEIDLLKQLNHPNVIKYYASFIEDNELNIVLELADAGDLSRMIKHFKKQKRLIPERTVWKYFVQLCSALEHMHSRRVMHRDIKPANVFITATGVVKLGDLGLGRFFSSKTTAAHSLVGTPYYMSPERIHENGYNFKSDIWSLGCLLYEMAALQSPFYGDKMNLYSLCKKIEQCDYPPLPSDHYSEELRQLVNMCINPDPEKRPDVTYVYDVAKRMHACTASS
Assay [12] has as its target 266 human kinases (Homo sapiens, UniProt Q9Y6E0). The following applies: MST3(h); 100 μM. The method in brief:
as §1

Chain of 266 human kinases (Homo sapiens, UniProt Q02763) (Q02763 23-1124): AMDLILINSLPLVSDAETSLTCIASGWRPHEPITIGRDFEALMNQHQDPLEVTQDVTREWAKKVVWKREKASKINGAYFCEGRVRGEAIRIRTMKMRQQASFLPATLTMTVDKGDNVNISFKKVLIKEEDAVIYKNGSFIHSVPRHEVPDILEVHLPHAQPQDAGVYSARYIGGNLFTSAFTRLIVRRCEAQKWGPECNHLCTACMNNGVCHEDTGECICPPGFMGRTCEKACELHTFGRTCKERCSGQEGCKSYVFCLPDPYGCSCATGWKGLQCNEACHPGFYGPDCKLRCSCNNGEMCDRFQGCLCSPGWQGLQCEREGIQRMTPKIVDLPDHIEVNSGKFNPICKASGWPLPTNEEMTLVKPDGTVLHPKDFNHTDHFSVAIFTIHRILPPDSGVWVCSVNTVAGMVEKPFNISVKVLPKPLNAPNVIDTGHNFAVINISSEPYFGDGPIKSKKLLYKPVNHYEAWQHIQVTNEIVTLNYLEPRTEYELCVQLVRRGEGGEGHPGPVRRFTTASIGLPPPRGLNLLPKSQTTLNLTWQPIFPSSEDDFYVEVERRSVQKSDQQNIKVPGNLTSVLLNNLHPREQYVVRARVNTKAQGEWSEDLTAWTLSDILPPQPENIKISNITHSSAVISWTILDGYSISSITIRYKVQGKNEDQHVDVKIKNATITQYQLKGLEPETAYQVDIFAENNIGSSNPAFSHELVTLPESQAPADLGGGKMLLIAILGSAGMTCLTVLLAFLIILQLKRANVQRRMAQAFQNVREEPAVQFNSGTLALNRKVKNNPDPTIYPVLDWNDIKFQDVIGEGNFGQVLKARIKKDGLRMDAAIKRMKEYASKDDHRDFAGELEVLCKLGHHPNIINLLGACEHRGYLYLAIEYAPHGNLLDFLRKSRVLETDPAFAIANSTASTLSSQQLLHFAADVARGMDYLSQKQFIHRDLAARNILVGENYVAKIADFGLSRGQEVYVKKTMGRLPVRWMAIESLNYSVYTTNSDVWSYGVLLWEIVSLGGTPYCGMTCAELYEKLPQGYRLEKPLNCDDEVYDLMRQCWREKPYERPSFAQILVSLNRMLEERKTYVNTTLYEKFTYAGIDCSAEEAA
Chain of 266 human kinases (Homo sapiens, UniProt Q9Y6E0) (Q9Y6E0 whole entry): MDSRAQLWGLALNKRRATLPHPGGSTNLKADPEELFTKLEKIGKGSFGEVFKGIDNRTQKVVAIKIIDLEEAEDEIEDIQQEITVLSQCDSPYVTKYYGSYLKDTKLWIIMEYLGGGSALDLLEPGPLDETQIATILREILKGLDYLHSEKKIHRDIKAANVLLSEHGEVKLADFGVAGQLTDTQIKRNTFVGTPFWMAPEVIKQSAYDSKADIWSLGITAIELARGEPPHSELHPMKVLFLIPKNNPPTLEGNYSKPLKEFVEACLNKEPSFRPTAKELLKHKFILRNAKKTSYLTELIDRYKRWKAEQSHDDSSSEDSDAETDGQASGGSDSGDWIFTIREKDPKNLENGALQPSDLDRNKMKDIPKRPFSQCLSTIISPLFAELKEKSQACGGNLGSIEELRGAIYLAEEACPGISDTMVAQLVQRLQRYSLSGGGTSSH
Chain of 266 human kinases (Homo sapiens, UniProt P16591) (P16591 whole entry): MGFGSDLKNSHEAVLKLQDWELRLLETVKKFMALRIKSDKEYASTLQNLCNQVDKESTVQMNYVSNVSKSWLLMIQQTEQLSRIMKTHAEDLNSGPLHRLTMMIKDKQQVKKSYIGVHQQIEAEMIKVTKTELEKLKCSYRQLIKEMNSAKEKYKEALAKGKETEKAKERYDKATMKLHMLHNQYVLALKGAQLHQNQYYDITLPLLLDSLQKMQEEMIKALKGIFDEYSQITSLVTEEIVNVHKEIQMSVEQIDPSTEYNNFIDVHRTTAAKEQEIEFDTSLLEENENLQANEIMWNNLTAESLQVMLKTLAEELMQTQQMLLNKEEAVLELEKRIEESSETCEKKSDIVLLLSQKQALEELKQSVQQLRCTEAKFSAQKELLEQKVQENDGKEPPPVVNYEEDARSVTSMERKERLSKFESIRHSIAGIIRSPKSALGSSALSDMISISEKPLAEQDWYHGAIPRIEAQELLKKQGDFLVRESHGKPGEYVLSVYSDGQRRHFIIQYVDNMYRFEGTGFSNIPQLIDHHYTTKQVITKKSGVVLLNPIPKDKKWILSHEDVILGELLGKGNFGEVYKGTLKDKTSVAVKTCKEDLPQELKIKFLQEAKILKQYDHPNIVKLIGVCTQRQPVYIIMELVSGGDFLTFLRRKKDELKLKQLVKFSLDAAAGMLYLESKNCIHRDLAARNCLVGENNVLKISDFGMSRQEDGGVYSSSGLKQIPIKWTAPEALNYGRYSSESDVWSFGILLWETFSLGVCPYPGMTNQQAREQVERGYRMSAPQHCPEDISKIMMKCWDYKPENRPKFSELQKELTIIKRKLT

For “HRRIKAWLKKIKALARQLGVAA (mammal) [MMI-0500]”, the “% activity” value in assay [1] was found to be 218%; in [2] (Src(1-530)(h)) it was 21%; in assay [2] (cSRC(h)) it was 30%; in assay [3] it was 196%; in assay [4], 118%; in assay [5], 45%. The “% activity” value in assay [6] is 337%; in assay [7] (mTOR(h)), 135%; in assay [7] (mTOR/FKBP12(h)) it was 140%; in assay [8], 15%; in assay [9] it was 22%; in assay [10] it was 124%. For the same sequence, the “% activity” value is on record as 89% in assay [11] and 4% in [12].

With “YARAAARQARAKALNRQLGVA (mammal) [MMI-0200]”, the “% activity” value is listed as 118% in assay [1]; 75% in [2] (Src(1-530)(h)); 32% in [2] (cSRC(h)); 101% in assay [3]; 110% in assay [4]; 101% in assay [5]. Moreover, the “% activity” value turned out to be 133% in assay [6]; 110% in [7] (mTOR(h)); 118% in [7] (mTOR/FKBP12(h)); 67% in [8]; 53% in assay [9]; 132% in [10]. The “% activity” value in assay [11] was 96%; in assay [12], 95%.

(Values after patent US20140072613A1, “Compositions and Methods for Treating Cutaneous Scarring” (priority 2012, published 2014).)
